The target of experiment [1] is T1, myc-DAPLE full length F1675A (human, UniProt Q9P219 1-2028).
T1 construct: Expressed in Cos7 cells; used as cell lysate; also called myc-DAPLE FA; DAPLE-FA; not shown: N-terminal myc tag of myc-pcDNA 3.1 (+)
The experiment can be described thus: GST pulldown from Cos7 lysates (FIG. 2D). The source says:
(§1) FIGS. 2A-2N. DAPLE binds and activates Gαi3 in vitro and in vivo via its GBA motif. (A) Prediction of molecular contacts critical for the DAPLE-Gαi interaction. Homology-based model of DAPLE's GBA motif (Red) bound to Gαi3 (green=Switch II, blue=ras-like domain, yellow, all-helical domain) with an enlarged section depicting a putative hydrophobic contact between DAPLE's F1675 and Gαi3's W211/F215. (B) Mutation of residues in the SWII region of Gαi3 disrupts DAPLE binding. Binding of His-DAPLE-CT to GST-Gαi3 WT, W211A or F215A was analyzed exactly as described in FIG. 1D. (C) Mutation of DAPLE F1675 to A abrogates Gαi3 binding. Binding of His-DAPLE-CT WT or F1675A (FA) to GST-Gαi3 was analyzed exactly as described in FIG. 1D. […] Myc-DAPLE WT or F1675A (FA) was expressed in Cos7 and binding to GST-Gαi3 analyzed exactly as described in FIG. 1E. […] Immune complexes were analyzed for DAPLE (myc) and Gαi3 (FLAG) by immunoblotting (IB). was monitored as positive Gαi3-binding control. […] The steady-state GTPase activity of His-Gαi3 alone (black) or in the presence of 2 μM His-DAPLE-CT (blue) was determined by measuring the production of [³²P]Pi at different time points as described in “Methods”. […] GTPγ³⁵S binding to His-Gαi3 at 15 min was determined in the presence of increasing concentrations (0-2 μM) of His-DAPLE-CT WT (blue) or His-DAPLE-CT FA (red).

Experiment [2] deals with T2, His-DAPLE-CT (aa 1650-2028) F1675A (human, UniProt Q9P219 1650-2028).
T2 construct: Recombinant, purified from E. coli; also called His-DAPLE-CT FA; DAPLE-CT FA; not shown: His tag and vector residues of pET28b
T2 sequence: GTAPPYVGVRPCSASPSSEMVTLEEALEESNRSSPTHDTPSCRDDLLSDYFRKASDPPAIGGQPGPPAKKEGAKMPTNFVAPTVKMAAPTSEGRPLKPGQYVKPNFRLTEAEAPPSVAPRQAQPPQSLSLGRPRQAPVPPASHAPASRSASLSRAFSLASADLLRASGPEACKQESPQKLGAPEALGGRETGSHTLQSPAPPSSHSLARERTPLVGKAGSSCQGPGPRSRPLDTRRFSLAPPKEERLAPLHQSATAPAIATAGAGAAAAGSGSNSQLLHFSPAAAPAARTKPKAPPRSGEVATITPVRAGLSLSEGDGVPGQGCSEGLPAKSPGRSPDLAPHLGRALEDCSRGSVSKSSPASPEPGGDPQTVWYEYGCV
Kind of experiment: GST pulldown, purified proteins (FIG. 2C).
From the text: as §1

B1: GST-Gαi3 preloaded with GDP (inactive) (other, rat, UniProt P08753 1-354, looked up)
chain: MGCTLSAEDKAAVERSKMIDRNLREDGEKAAKEVKLLLLGAGESGKSTIVKQMKIIHEDGYSEDECKQYKVVVYSNTIQSIIAIIRAMGRLKIDFGEAARADDARQLFVLAGSAEEGVMTSELAGVIKRLWRDGGVQACFSRSREYQLNDSASYYLNDLDRISQTNYIPTQQDVLRTRVKTTGIVETHFTFKELYFKMFDVGGQRSERKKWIHCFEGVTAIIFCVALSDYDLVLAEDEEMNRMHESMKLFDSICNNKWFTDTSIILFLNKKDLFEEKIKRSPLTICYPEYTGSNTYEEAAAYIQCQFEDLNRRKDTKEVYTHFTCATDTKNVQFVFDAVTDVIIKNNLKECGLY
notes: Immobilized on glutathione beads; Same polypeptide as m11, other nucleotide state; also called GST-Gαi3 WT; not shown: glutathione S-transferase tag of the pGEX-4T-1 vector
B1: the binding result in experiment [1] and in experiment [2] was “no binding” in each case.

The record behind these values is patent US20160362464A1 (University of California, published 2016).
